The values below come from publication PMC6475865.

Series [1] deals with Integrase IN_CRF consensus (HIV-1 CRF63_02A1 (consensus of Siberian/Ural isolates)). The series is described as follows: DRaCALA (nitrocellulose). The conditions noted are these: 20 mM HEPES pH 7.2, 10 mM DTT, 7.5 mM MgCl2, 25 C; DRaCALA: 5 nM DNA, 0-500 nM IN, 20 min.
For series [2], the system named is Integrase IN_A (HIV-1 subtype A strain FSU-A). The series is described as follows: DRaCALA (nitrocellulose). The conditions noted are these: 20 mM HEPES pH 7.2, 10 mM DTT, 7.5 mM MgCl2, 25 C; DRaCALA: 5 nM DNA, 0-500 nM IN, 20 min.

For the sequence “GTGTGGAAAATCTCTAGCAGT (double strand) [U5B/U5A duplex]”, the equilibrium dissociation constant (Kd) in series [1] worked out at 23 nM; in series [2], 25 nM.

Usually Kd stands for the concentration at which binding is half-saturated. Low values mean higher affinity, high ones lower affinity.
